Patent US20240391971A1

Target: human GFRAL (UniProtKB-Q6UXV0) (human) (UniProt Q6UXV0)
Assay: cell-based or functional assay

Sequence of human GFRAL (Q6UXV0 19-394): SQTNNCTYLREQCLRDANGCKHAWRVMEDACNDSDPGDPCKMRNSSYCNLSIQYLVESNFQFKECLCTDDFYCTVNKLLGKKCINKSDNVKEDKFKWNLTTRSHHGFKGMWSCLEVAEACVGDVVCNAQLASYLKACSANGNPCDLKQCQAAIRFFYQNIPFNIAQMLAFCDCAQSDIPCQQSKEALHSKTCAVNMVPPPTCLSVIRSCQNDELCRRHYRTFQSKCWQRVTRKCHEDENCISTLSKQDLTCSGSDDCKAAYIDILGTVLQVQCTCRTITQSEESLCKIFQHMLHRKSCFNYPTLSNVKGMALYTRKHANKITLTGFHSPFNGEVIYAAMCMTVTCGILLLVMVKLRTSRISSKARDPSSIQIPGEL

Which Relative activity ratio (native GDF15 EC50: Fc-GDF15 construct EC50), ERK1/2 phosphorylation HTRF in HEK293T cells expressing human GFRAL and RET does the source give for “native GDF15 (ACROBiosystems, GD5-H5149) (from UniProt Q99988 195-308) (ligand)” here?
Its Relative activity ratio (native GDF15 EC50: Fc-GDF15 construct EC50), ERK1/2 phosphorylation HTRF in HEK293T cells expressing human GFRAL and RET is 1.
